In publication PMC10570040 (Nucleic Acids Research, 2023):

Biological target: the molecule itself
Assay: AUC; sedimentation velocity, 42,000 rpm, 20°C, absorbance at 280 nm, analysed with SEDFIT

Protein	stoichiometry N
EnfR mutant with N-terminal six residues deleted (ΔN^1–6) (domain or fragment, Thermococcus onnurineus NA1, UniProt B6YTS4 7-146, looked up, TON_1525 (EnfR) of Thermococcus onnurineus NA1, residues 1-146 without the N-terminal six residues (N-6 region, residues 1-6); The limits 7-146 follow from the printed deletion of residues 1-6 of the 1-146 construct; also called mutant with the N-6 region deleted; source: E. coli, purified by the same procedure as the wild-type; not shown: His6, C-terminal, kept) LTEQQIKILRLRARGLKQSEIAELLGTSRANISILERRALEKIEKARNTITIWEQINSKISVEVRKGEDIFTVPDKLFKKADELQIKVPYSTAEIIAFLVEHAPISDRIAKRDFTLFLDARDRLRISECLLEEFDEIGKQ	2
TON_1525 ('eighth note' fold regulator, EnfR), wild-type (natural protein, Thermococcus onnurineus NA1, UniProt B6YTS4 1-146, looked up, Synthetic gene in pET24a(+) with an in-frame non-cleavable C-terminal His6-tag; also called WT; wild-type EnfR; source: E. coli Rosetta (DE3), purified (75°C heat step, Ni-NTA, Superdex 75); not shown: His6, C-terminal, kept) MGSKSFLTEQQIKILRLRARGLKQSEIAELLGTSRANISILERRALEKIEKARNTITIWEQINSKISVEVRKGEDIFTVPDKLFKKADELQIKVPYSTAEIIAFLVEHAPISDRIAKRDFTLFLDARDRLRISECLLEEFDEIGKQ	2
EnfR R35A mutant (natural protein, Thermococcus onnurineus NA1, UniProt B6YTS4 1-146, looked up, TON_1525 (EnfR) of Thermococcus onnurineus NA1, residues 1-146, with R35A; source: E. coli, purified by the same procedure as the wild-type; not shown: His6, C-terminal, kept) MGSKSFLTEQQIKILRLRARGLKQSEIAELLGTSAANISILERRALEKIEKARNTITIWEQINSKISVEVRKGEDIFTVPDKLFKKADELQIKVPYSTAEIIAFLVEHAPISDRIAKRDFTLFLDARDRLRISECLLEEFDEIGKQ	2
EnfR R44A mutant (natural protein, Thermococcus onnurineus NA1, UniProt B6YTS4 1-146, looked up, TON_1525 (EnfR) of Thermococcus onnurineus NA1, residues 1-146, with R44A; source: E. coli, purified by the same procedure as the wild-type; not shown: His6, C-terminal, kept) MGSKSFLTEQQIKILRLRARGLKQSEIAELLGTSRANISILERAALEKIEKARNTITIWEQINSKISVEVRKGEDIFTVPDKLFKKADELQIKVPYSTAEIIAFLVEHAPISDRIAKRDFTLFLDARDRLRISECLLEEFDEIGKQ	2
EnfR R43A mutant (natural protein, Thermococcus onnurineus NA1, UniProt B6YTS4 1-146, looked up, TON_1525 (EnfR) of Thermococcus onnurineus NA1, residues 1-146, with R43A; source: E. coli, purified by the same procedure as the wild-type; not shown: His6, C-terminal, kept) MGSKSFLTEQQIKILRLRARGLKQSEIAELLGTSRANISILEARALEKIEKARNTITIWEQINSKISVEVRKGEDIFTVPDKLFKKADELQIKVPYSTAEIIAFLVEHAPISDRIAKRDFTLFLDARDRLRISECLLEEFDEIGKQ	2

Biological target: the molecule itself
Assay: crystal structure; microbatch under oil at 22°C; space group P4(3)2(1)2, two monomers in the asymmetric unit

Protein	binding result
EnfR (TON_1525) T55I mutant (natural protein, Thermococcus onnurineus NA1, UniProt B6YTS4 1-146, looked up, TON_1525 (EnfR) of Thermococcus onnurineus NA1, residues 1-146, with T55I; The T55I change first arose in an adaptive laboratory evolution (strain 156T / MC11); here made by site-directed mutagenesis; source: E. coli Rosetta (DE3), purified (75°C heat step, Ni-NTA, Superdex 75); not shown: His6, C-terminal, kept) MGSKSFLTEQQIKILRLRARGLKQSEIAELLGTSRANISILERRALEKIEKARNIITIWEQINSKISVEVRKGEDIFTVPDKLFKKADELQIKVPYSTAEIIAFLVEHAPISDRIAKRDFTLFLDARDRLRISECLLEEFDEIGKQ	binds
